Reference: publication doi:10.1101/2020.06.02.095570 (bioRxiv, 2020)

B1: dehydrodolichyl diphosphate synthase (DHDDS), full-length human (enzyme)
chain: MSWIKEGELSLWERFCANIIKAGPMPKHIAFIMDGNRRYAKKCQVERQEGHSQGFNKLAETLRWCLNLGILEVTVYAFSIENFKRSKSEVDGLMDLARQKFSRLMEEKEKLQKHGVCIRVLGDLHLLPLDLQELIAQAVQATKNYNKCFLNVCFAYTSRHEISNAVREMAWGVEQGLLDPSDISESLLDKCLYTNRSPHPDILIRTSGEVRLSDFLLWQTSHSCLVFQPVLWPEYTFWNLFEAILQFQMNHSVLQKARDMYAEERKRQQLERDQATVTEQLLREGLQASGDAQLRRTRLHKLSARREERVQGFLQALELKRADWLARLGTASA

Legend:
cross-linking = biological target: the molecule itself; assay: cross-linking
[1] = biological target: B1; assay: crystal structure

Row | Binder | binding result (cross-linking) | binding result [1]
1 | B1 | binds | –
2 | sNgBRΔ167*-175* (soluble Nogo-B receptor, residues 73*-293*, loop 167-175 removed) (domain or fragment) RGGSCLAAAHHRMRWRADGRSLEKLPVHMGLVITEVEQEPSFSDIASLVVWCMAVGISYISVYDHQGIFKRNNSRLMDEILKQQQELLGLDCSKDKDDQVLNCHLAVKVLSPEDGKADIVRAAQDFCQLVAQKQKRPTDLDVDTLASLLSSNGCPDPDLVLKFGPVDSTLGFLPWHIRLTEIVSLPSHLNISYEDFFSALRQYAACEQRLGK | – | binds
